Measurements taken from patent US20200024322A1 (Eli Lilly, published 2020).
Numbered stars: 1 amine (or outer) side, 2 acyl side, 3 side chain; on linkers, the order of the positions; unused ones are H or OH. Square brackets hold non-standard residues; d marks the D form. Side chains are listed from the residue outwards. Ends that are not written are not given here. * marks the point of attachment. C20 diacid = O=C(O)CCCCCCCCCCCCCCCCCCC(=O)*; C18 diacid = O=C(O)CCCCCCCCCCCCCCCCC(=O)*; γGlu = O=C(O)[C@H](CCC(=O)[*:2])N[*:1]; AEEA = NCCOCCOCC(=O)O; Aib = CC(C)(N)C(=O)O

T1: human GIP receptor (human, UniProt P48546 22-466)
T1 construct: whole, on cells; also called hGIPR; hGIP-R
T1 sequence (looked up): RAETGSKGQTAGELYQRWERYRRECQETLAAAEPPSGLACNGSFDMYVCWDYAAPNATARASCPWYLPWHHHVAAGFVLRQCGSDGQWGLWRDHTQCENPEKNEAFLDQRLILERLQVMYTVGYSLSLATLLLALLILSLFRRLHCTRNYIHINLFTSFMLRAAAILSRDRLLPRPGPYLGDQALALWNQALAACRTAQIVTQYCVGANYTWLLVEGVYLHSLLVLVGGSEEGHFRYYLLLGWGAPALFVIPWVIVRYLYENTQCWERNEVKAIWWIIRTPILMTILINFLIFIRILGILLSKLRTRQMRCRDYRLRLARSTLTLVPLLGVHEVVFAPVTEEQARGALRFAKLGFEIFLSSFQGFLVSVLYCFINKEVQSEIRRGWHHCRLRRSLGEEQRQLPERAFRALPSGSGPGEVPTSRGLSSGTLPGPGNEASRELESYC


Tests used:
human GIP receptor = target: T1, human GIP receptor; test: [125I]-GIP competition SPA, hGIPR membranes
Procedure: The binding buffer contains 25 mM HEPES, pH 7.4, 2.5 mM CaCl₂, 1 mM MgCl₂, 0.1% (w/v) bacitracin, 0.003% (w/v) TWEEN®-20, and Roche Complete™ Protease Inhibitors without EDTA. […] Plates are sealed and mixed on a plate shaker (setting 6) for 1 minute and read with a PerkinElmer Trilux MicroBeta® scintillation counter after 2.5 to 12 hours of incubation/settling time at room temperature.
(§1) Data are analyzed using four-parameter (curve maximum, curve minimum, IC₅₀, Hill slope) nonlinear regression routines (Genedata Screener, version 12.0.4, Genedata AG, Basal, Switzerland). […] Values for Kᵢ are reported as the geometric mean, with error expressed as the standard error of the mean (SEM) and n is equal to the number of independent replicates (determined in assays performed on different days). Geometric Means are calculated as follows: […]

human GLP-1 receptor = target: T2, human GLP-1 receptor (human, UniProt P43220 24-463); test: [125I]-GLP-1 competition SPA, hGLP-1R membranes
T2 construct: whole, on cells; also called hGLP-1R; hGLP1R
Procedure: The binding buffer contains 25 mM HEPES, pH 7.4, 2.5 mM CaCl₂, 1 mM MgCl₂, 0.1% (w/v) bacitracin, 0.003% (w/v) TWEEN®-20, and Roche Complete™ Protease Inhibitors without EDTA.
as §1

Binder | Ki (human GIP receptor) | Ki (human GLP-1 receptor)
YXEGTFTSDYSIXLDKKAQXEFIEYLIAGGPSSGAPPPS (Aib2; αMeL13; K17((2-[2-(2-Amino-ethoxy)-ethoxy]-acetyl)2-(γ-Glu)-CO-(CH2)18-CO2H); Aib20; C-terminal NH2, also called GG-731) [Example 289] | 0.0457 nM | 2.63 nM
XXEGTFTSDYSIXLDXKAQXAFIXYLIAGGPSSGAPPPS (D-Tyr1; Aib2; αMeL13; Orn16; K17((2-[2-(2-Amino-ethoxy)-ethoxy]-acetyl)2-(γ-Glu)-CO-(CH2)18-CO2H); Aib20; D-Glu24; C-terminal NH2) [Example 291] | 0.129 nM | 3.16 nM
XXEGTFTSDYSIXLDXKAQXAFVXYLIAGGPSSGAPPPS (D-Tyr1; Aib2; αMeL13; Orn16; K17((2-[2-(2-Amino-ethoxy)-ethoxy]-acetyl)2-(γ-Glu)-CO-(CH2)18-CO2H); Aib20; D-Glu24; C-terminal NH2) [Example 362] | 0.337 nM | 6.95 nM
XXEGTFTSDYSIXLDXKAQXEFIXYLIAGGPSSGAPPPS (D-Tyr1; Aib2; αMeL13; Orn16; K17((2-[2-(2-Amino-ethoxy)-ethoxy]-acetyl)2-(γ-Glu)-CO-(CH2)18-CO2H); Aib20; D-Glu24; C-terminal NH2) [Example 354] | 0.175 nM | 7.85 nM
XXEGTFTSDYSIXLDEKAQXEFIEYLIAGGPSSGAPPPS (D-Tyr1; Aib2; αMeL13; K17((2-[2-(2-Amino-ethoxy)-ethoxy]-acetyl)2-(γ-Glu)-CO-(CH2)18-CO2H); Aib20; C-terminal NH2) [Example 342] | 0.129 nM | 15.4 nM
XXEGTFTSDYSIXLDXKAQXAFIXYLIEGGPSSGAPPPS (D-Tyr1; Aib2; αMeL13; Orn16; K17((2-[2-(2-Amino-ethoxy)-ethoxy]-acetyl)2-(γ-Glu)-CO-(CH2)18-CO2H); Aib20; D-Glu24; C-terminal NH2) [Example 357] | 0.316 nM | 7.02 nM
YXEGTFTSDYSIXLDEKAQXDFIEYLIAGGPSSGAPPPS (Aib2; αMeL13; K17((2-[2-(2-Amino-ethoxy)-ethoxy]-acetyl)2-(γ-Glu)-CO-(CH2)18-CO2H); Aib20; C-terminal NH2) [Example 344] | 0.0507 nM | 14.8 nM
FXEGTFTSDYSIXLDKKAQXAFIEYLIEAGPSSGAPPPS (Aib2; αMeL13; K17((2-[2-(2-Amino-ethoxy)-ethoxy]-acetyl)2-(γ-Glu)-CO-(CH2)16-CO2H); Aib20; C-terminal NH2) [Example 328] | 0.136 nM | 3.98 nM
FXEGTFTSDYSIXLDKKAQXEFIEYLIAGGPSSGAPPPS (Aib2; αMeL13; K17((2-[2-(2-Amino-ethoxy)-ethoxy]-acetyl)2-(γ-Glu)-CO-(CH2)18-CO2H); Aib20; C-terminal NH2) [Example 338] | 0.0831 nM | 3.23 nM
XXEGTFTSDYSIXLDXKAQXAFVXYLIAGGPSSGAPPPS (not fully specified; D-Tyr1; Aib2; αMeL13; Orn16; K17((2-[2-(2-Amino-ethoxy)-ethoxy]-acetyl)2-(γ-Glu)-CO-(CH2)16-CO2H); Aib20; D-Glu24; C-terminal NH2) [Example 364] | 0.672 nM | 17.2 nM
YXEGTFTSDYSIXLDEKAQXEFIEYLIAGGPSSGAPPPS (Aib2; αMeL13; K17((2-[2-(2-Amino-ethoxy)-ethoxy]-acetyl)2-(γ-Glu)-CO-(CH2)18-CO2H); Aib20; C-terminal NH2) [Example 331] | 0.0851 nM | 11.4 nM
Y[Aib]EGTFTSDYSILLDKK([AEEA-AEEA-γGlu-C20 diacid])AQ[Aib]EFIEYLIAGGPSSGAPPPS-NH2 (N-terminus assumed; SMILES CC[C@H](C)[C@H](NC(=O)[C@H](CC(C)C)NC(=O)[C@H](Cc1ccc(O)cc1)NC(=O)[C@H](CCC(=O)O)NC(=O)[C@@H](NC(=O)[C@H](Cc1ccccc1)NC(=O)[C@H](CCC(=O)O)NC(=O)C(C)(C)NC(=O)[C@H](CCC(N)=O)NC(=O)[C@H](C)NC(=O)[C@H](CCCCNC(=O)COCCOCCNC(=O)COCCOCCNC(=O)CC[C@H](NC(=O)CCCCCCCCCCCCCCCCCCC(=O)O)C(=O)O)NC(=O)[C@H](CCCCN)NC(=O)[C@H](CC(=O)O)NC(=O)[C@H](CC(C)C)NC(=O)[C@H](CC(C)C)NC(=O)[C@@H](NC(=O)[C@H](CO)NC(=O)[C@H](Cc1ccc(O)cc1)NC(=O)[C@H](CC(=O)O)NC(=O)[C@H](CO)NC(=O)[C@@H](NC(=O)[C@H](Cc1ccccc1)NC(=O)[C@@H](NC(=O)CNC(=O)[C@H](CCC(=O)O)NC(=O)C(C)(C)NC(=O)[C@@H](N)Cc1ccc(O)cc1)[C@@H](C)O)[C@@H](C)O)[C@@H](C)CC)[C@@H](C)CC)C(=O)N[C@@H](C)C(=O)NCC(=O)NCC(=O)N1CCC[C@H]1C(=O)N[C@@H](CO)C(=O)N[C@@H](CO)C(=O)NCC(=O)N[C@@H](C)C(=O)N1CCC[C@H]1C(=O)N1CCC[C@H]1C(=O)N1CCC[C@H]1C(=O)N[C@@H](CO)C(N)=O) [Example 319] | 0.0349 nM | 3.61 nM
Y[Aib]EGTFTSDYSILLDEK([AEEA-AEEA-γGlu-C18 diacid])AQ[Aib]AFIEYLIEGG-NH2 (N-terminus assumed; SMILES CC[C@H](C)[C@H](NC(=O)[C@H](CC(C)C)NC(=O)[C@H](Cc1ccc(O)cc1)NC(=O)[C@H](CCC(=O)O)NC(=O)[C@@H](NC(=O)[C@H](Cc1ccccc1)NC(=O)[C@H](C)NC(=O)C(C)(C)NC(=O)[C@H](CCC(N)=O)NC(=O)[C@H](C)NC(=O)[C@H](CCCCNC(=O)COCCOCCNC(=O)COCCOCCNC(=O)CC[C@H](NC(=O)CCCCCCCCCCCCCCCCC(=O)O)C(=O)O)NC(=O)[C@H](CCC(=O)O)NC(=O)[C@H](CC(=O)O)NC(=O)[C@H](CC(C)C)NC(=O)[C@H](CC(C)C)NC(=O)[C@@H](NC(=O)[C@H](CO)NC(=O)[C@H](Cc1ccc(O)cc1)NC(=O)[C@H](CC(=O)O)NC(=O)[C@H](CO)NC(=O)[C@@H](NC(=O)[C@H](Cc1ccccc1)NC(=O)[C@@H](NC(=O)CNC(=O)[C@H](CCC(=O)O)NC(=O)C(C)(C)NC(=O)[C@@H](N)Cc1ccc(O)cc1)[C@@H](C)O)[C@@H](C)O)[C@@H](C)CC)[C@@H](C)CC)C(=O)N[C@@H](CCC(=O)O)C(=O)NCC(=O)NCC(N)=O) [Example 269] | 0.152 nM | 7.1 nM
Y[Aib]EGTFTSDYSILLDKK([AEEA-AEEA-γGlu-C18 diacid])AQ[Aib]EFIEYLIEGG-NH2 (N-terminus assumed; SMILES CC[C@H](C)[C@H](NC(=O)[C@H](CC(C)C)NC(=O)[C@H](Cc1ccc(O)cc1)NC(=O)[C@H](CCC(=O)O)NC(=O)[C@@H](NC(=O)[C@H](Cc1ccccc1)NC(=O)[C@H](CCC(=O)O)NC(=O)C(C)(C)NC(=O)[C@H](CCC(N)=O)NC(=O)[C@H](C)NC(=O)[C@H](CCCCNC(=O)COCCOCCNC(=O)COCCOCCNC(=O)CC[C@H](NC(=O)CCCCCCCCCCCCCCCCC(=O)O)C(=O)O)NC(=O)[C@H](CCCCN)NC(=O)[C@H](CC(=O)O)NC(=O)[C@H](CC(C)C)NC(=O)[C@H](CC(C)C)NC(=O)[C@@H](NC(=O)[C@H](CO)NC(=O)[C@H](Cc1ccc(O)cc1)NC(=O)[C@H](CC(=O)O)NC(=O)[C@H](CO)NC(=O)[C@@H](NC(=O)[C@H](Cc1ccccc1)NC(=O)[C@@H](NC(=O)CNC(=O)[C@H](CCC(=O)O)NC(=O)C(C)(C)NC(=O)[C@@H](N)Cc1ccc(O)cc1)[C@@H](C)O)[C@@H](C)O)[C@@H](C)CC)[C@@H](C)CC)C(=O)N[C@@H](CCC(=O)O)C(=O)NCC(=O)NCC(N)=O) [Example 271] | 0.107 nM | 5.09 nM
Y[Aib]EGTFTSDYSILLDKK([AEEA-AEEA-γGlu-C18 diacid])AQ[Aib]EFIEYLIAGG-NH2 (N-terminus assumed; SMILES CC[C@H](C)[C@H](NC(=O)[C@H](CC(C)C)NC(=O)[C@H](Cc1ccc(O)cc1)NC(=O)[C@H](CCC(=O)O)NC(=O)[C@@H](NC(=O)[C@H](Cc1ccccc1)NC(=O)[C@H](CCC(=O)O)NC(=O)C(C)(C)NC(=O)[C@H](CCC(N)=O)NC(=O)[C@H](C)NC(=O)[C@H](CCCCNC(=O)COCCOCCNC(=O)COCCOCCNC(=O)CC[C@H](NC(=O)CCCCCCCCCCCCCCCCC(=O)O)C(=O)O)NC(=O)[C@H](CCCCN)NC(=O)[C@H](CC(=O)O)NC(=O)[C@H](CC(C)C)NC(=O)[C@H](CC(C)C)NC(=O)[C@@H](NC(=O)[C@H](CO)NC(=O)[C@H](Cc1ccc(O)cc1)NC(=O)[C@H](CC(=O)O)NC(=O)[C@H](CO)NC(=O)[C@@H](NC(=O)[C@H](Cc1ccccc1)NC(=O)[C@@H](NC(=O)CNC(=O)[C@H](CCC(=O)O)NC(=O)C(C)(C)NC(=O)[C@@H](N)Cc1ccc(O)cc1)[C@@H](C)O)[C@@H](C)O)[C@@H](C)CC)[C@@H](C)CC)C(=O)N[C@@H](C)C(=O)NCC(=O)NCC(N)=O) [Example 297] | 0.0958 nM | 2.98 nM
Y[Aib]EGTFTSDYSILLDKK([AEEA-AEEA-γGlu-C18 diacid])AQHAFIEYLIEGG-NH2 (N-terminus assumed; SMILES CC[C@H](C)[C@H](NC(=O)[C@H](CC(C)C)NC(=O)[C@H](Cc1ccc(O)cc1)NC(=O)[C@H](CCC(=O)O)NC(=O)[C@@H](NC(=O)[C@H](Cc1ccccc1)NC(=O)[C@H](C)NC(=O)[C@H](Cc1c[nH]cn1)NC(=O)[C@H](CCC(N)=O)NC(=O)[C@H](C)NC(=O)[C@H](CCCCNC(=O)COCCOCCNC(=O)COCCOCCNC(=O)CC[C@H](NC(=O)CCCCCCCCCCCCCCCCC(=O)O)C(=O)O)NC(=O)[C@H](CCCCN)NC(=O)[C@H](CC(=O)O)NC(=O)[C@H](CC(C)C)NC(=O)[C@H](CC(C)C)NC(=O)[C@@H](NC(=O)[C@H](CO)NC(=O)[C@H](Cc1ccc(O)cc1)NC(=O)[C@H](CC(=O)O)NC(=O)[C@H](CO)NC(=O)[C@@H](NC(=O)[C@H](Cc1ccccc1)NC(=O)[C@@H](NC(=O)CNC(=O)[C@H](CCC(=O)O)NC(=O)C(C)(C)NC(=O)[C@@H](N)Cc1ccc(O)cc1)[C@@H](C)O)[C@@H](C)O)[C@@H](C)CC)[C@@H](C)CC)C(=O)N[C@@H](CCC(=O)O)C(=O)NCC(=O)NCC(N)=O) [Example 295] | 0.181 nM | 4.12 nM
